# The Immune Epitope Database (IEDB)
# Legend:
# HLA-B*07:02 [1] = test: IEDB peptide-MHC binding, purified MHC/competitive/fluorescence; ≥ and ≤ were set here for values at or beyond the usual limits of such assays
# HLA-B*58:01 = test: IEDB peptide-MHC binding, purified MHC/competitive/radioactivity; filed as Kd, often an IC50 or EC50 that approximates it; ≥ and ≤ were set here for values at or beyond the usual limits of such assays
# HLA-B*57:01 = test: as above
# HLA-B*15:42 = test: IEDB peptide-MHC binding, purified MHC/competitive/fluorescence; filed as Kd, often an IC50 or EC50 that approximates it; ≥ and ≤ were set here for values at or beyond the usual limits of such assays; conditions: source organism: Orthohantavirus puumalaense
# HLA-B*45:06 = test: as above; conditions: source organism: Orthohantavirus puumalaense
# HLA-B*83:01 = test: as above; conditions: source organism: Orthohantavirus puumalaense
# HLA-B*18:01 = test: IEDB peptide-MHC binding, purified MHC/direct/fluorescence; filed as Kd, often an IC50 or EC50 that approximates it; ≥ and ≤ were set here for values at or beyond the usual limits of such assays; conditions: source organism: Amur virus
# HLA-B*40:01 = test: as above; conditions: source organism: Amur virus
# HLA-A*02:02 = test: IEDB peptide-MHC binding, purified MHC/competitive/radioactivity; filed as Kd, often an IC50 or EC50 that approximates it; ≥ and ≤ were set here for values at or beyond the usual limits of such assays; conditions: source organism: Vaccinia virus WR
# HLA-B*07:02 [2] = test: as above; conditions: source organism: Vaccinia virus WR
# HLA-A*02:01 [3] = test: as above; conditions: source organism: Vaccinia virus WR
# HLA-A*02:03 [4] = test: as above; conditions: source organism: Vaccinia virus WR
# HLA-B*54:01 = test: as above; conditions: source organism: Vaccinia virus WR
# HLA-B*51:01 = test: as above; conditions: source organism: Vaccinia virus WR
# HLA-B*53:01 = test: as above
# HLA-B*35:01 = test: as above; conditions: source organism: Vaccinia virus WR
# HLA-A*02:06 = test: as above; conditions: source organism: Vaccinia virus WR
# HLA-A*68:02 = test: as above; conditions: source organism: Vaccinia virus WR
# HLA-A*69:01 = test: IEDB peptide-MHC binding, purified MHC/direct/fluorescence; filed as Kd, often an IC50 or EC50 that approximates it; ≥ and ≤ were set here for values at or beyond the usual limits of such assays
# HLA-A*02:03 [5] = test: as above; conditions: source organism: Mycobacterium tuberculosis str. Haarlem
# HLA-A*11:01 [6] = test: IEDB peptide-MHC binding, purified MHC/competitive/radioactivity; filed as Kd, often an IC50 or EC50 that approximates it; ≥ and ≤ were set here for values at or beyond the usual limits of such assays; conditions: source organism: Dengue virus 3 Martinique/1243/1999
# HLA-A*24:03 = test: IEDB peptide-MHC binding, purified MHC/competitive/fluorescence; filed as Kd, often an IC50 or EC50 that approximates it; ≥ and ≤ were set here for values at or beyond the usual limits of such assays
# HLA-B*15:01 = test: IEDB peptide-MHC binding, purified MHC/competitive/fluorescence; ≥ and ≤ were set here for values at or beyond the usual limits of such assays
# HLA-A*24:02 = test: as above
# HLA-A*02:01 [7] = test: as above
# HLA-A*11:01 [8] = test: as above; conditions: source organism: Sudan ebolavirus
# HLA-A*30:01 = test: IEDB peptide-MHC binding, purified MHC/competitive/radioactivity; filed as Kd, often an IC50 or EC50 that approximates it; ≥ and ≤ were set here for values at or beyond the usual limits of such assays; conditions: source organism: Dengue virus 2 Jamaica/1409/1983
# HLA-A*01:01 [9] = test: IEDB peptide-MHC binding, purified MHC/direct/fluorescence; filed as Kd, often an IC50 or EC50 that approximates it; ≥ and ≤ were set here for values at or beyond the usual limits of such assays; conditions: source organism: Mycobacterium tuberculosis
# HLA-A*29:02 = test: as above; conditions: source organism: Mycobacterium tuberculosis str. Haarlem
# HLA-A*32:01 = test: IEDB peptide-MHC binding, purified MHC/competitive/radioactivity; filed as Kd, often an IC50 or EC50 that approximates it; ≥ and ≤ were set here for values at or beyond the usual limits of such assays; conditions: source organism: Dengue virus 1 Brazil/97-11/1997
# HLA-A*01:01 [10] = test: as above; conditions: source organism: Dengue virus 3 Sri Lanka/1266/2000
# HLA-A*02:01 [11] = test: IEDB peptide-MHC binding, purified MHC/direct/fluorescence; filed as Kd, often an IC50 or EC50 that approximates it; ≥ and ≤ were set here for values at or beyond the usual limits of such assays; conditions: source organism: Marburg virus - Musoke, Kenya, 1980
# HLA-A*02:12 = test: as above; conditions: source organism: Ravn virus - Ravn, Kenya, 1987
# [12] = source organism: Dengue virus 2 Jamaica/1409/1983
# [13] = source organism: Vaccinia virus WR
# [14] = source organism: Dengue virus 3 Martinique/1243/1999
# [15] = source organism: Dengue virus 1 Singapore/S275/1990
# [16] = source organism: Zaire ebolavirus
# [17] = source organism: Dengue virus 4 Philippines/H241/1956
# [18] = source organism: Sudan ebolavirus
# [19] = source organism: Vaccinia virus
# [20] = source organism: Dengue virus 1 Brazil/97-11/1997
sequence,measurement,setting,value
AAEAMEVA,IC50,HLA-B*07:02 [1]; source organism: H1N1 subtype Influenza A/Oklahoma/7485/01,≥ 1000 µM
AASIILEFFL,Kd,HLA-B*58:01; [12],0.366 µM
same,Kd,HLA-B*57:01; [12],2.27 µM
AELGAFFSI,Kd,HLA-B*15:42,≥ 5 µM
same,Kd,HLA-B*45:06,≥ 5 µM
same,Kd,HLA-B*83:01,≥ 5 µM
same,Kd,HLA-B*18:01,0.0408 µM
same,Kd,HLA-B*40:01,≤ 0.001 µM
AFEFINSLLK,Kd,HLA-A*02:02,5.48 µM
same,Kd,HLA-B*07:02 [2],≥ 69.6 µM
same,Kd,HLA-A*02:01 [3],12.1 µM
same,Kd,HLA-A*02:03 [4],≥ 20.6 µM
same,Kd,HLA-B*54:01,≥ 69.9 µM
same,Kd,HLA-B*51:01,≥ 69.6 µM
same,Kd,HLA-B*53:01; [13],≥ 69.9 µM
same,Kd,HLA-B*35:01,≥ 69.9 µM
same,Kd,HLA-A*02:06,≥ 42.8 µM
same,Kd,HLA-A*68:02,11.5 µM
ALLENIHRV,Kd,HLA-A*69:01; source organism: Mycobacterium tuberculosis,0.0473 µM
same,Kd,HLA-A*02:03 [5],0.002 µM
ASSMINGVVK,Kd,HLA-A*11:01 [6],0.0392 µM
same,Kd,HLA-B*58:01; [14],1.3 µM
same,Kd,HLA-B*57:01; [14],15.7 µM
FWPQHFGLI,Kd,HLA-A*24:03; source organism: Escherichia coli F11,0.0004 µM
GASHNILVEV,Kd,HLA-B*58:01; [15],9.64 µM
same,Kd,HLA-B*57:01; [15],0.785 µM
GGWRLSAQW,Kd,HLA-B*57:01; [14],0.179 µM
GPHRTIHHA,IC50,HLA-B*07:02 [1]; [16],5.75 µM
GQSPARTSS,IC50,HLA-B*15:01; [16],26 µM
GTSETFSMGL,Kd,HLA-B*57:01; [17],13.5 µM
HTPQFLFQL,IC50,HLA-A*24:02; [18],1.11 µM
same,IC50,HLA-B*07:02 [1]; [18],≥ 78.8 µM
same,IC50,HLA-A*02:01 [7]; [18],2.73 µM
same,IC50,HLA-A*11:01 [8],≥ 166 µM
IASLVMLLVH,Kd,HLA-B*58:01; [17],1.73 µM
same,Kd,HLA-B*57:01; [17],0.435 µM
IGIGVLLTW,Kd,HLA-B*53:01; [14],1.14 µM
same,Kd,HLA-B*58:01; [14],0.0116 µM
same,Kd,HLA-B*57:01; [14],0.192 µM
IGLAWIPYF,IC50,HLA-B*15:01; [16],≥ 153 µM
same,IC50,HLA-A*02:01 [7]; [16],5.68 µM
ILRSLETDL,IC50,HLA-B*15:01; [19],58.9 µM
same,IC50,HLA-A*02:01 [7]; [19],22 µM
IQVHAEQGL,IC50,HLA-B*15:01; [16],33 µM
same,IC50,HLA-A*02:01 [7]; [16],≥ 105 µM
IRGFPRCRY,IC50,HLA-A*24:02; [16],66 µM
same,IC50,HLA-B*15:01; [16],≥ 242 µM
ISSTPLAENT,Kd,HLA-B*58:01; source organism: Dengue virus 4 Dominica/814669/1981,0.951 µM
KARSTPFNM,Kd,HLA-A*30:01,0.169 µM
same,Kd,HLA-B*58:01; [12],0.194 µM
KHAQRIETW,Kd,HLA-B*58:01; source organism: Dengue virus 2 Peru/IQT2913/1996,0.482 µM
LPNPAFIHI,IC50,HLA-B*07:02 [1]; source organism: Variola virus,11 µM
LPRDKFRKS,IC50,HLA-B*07:02 [1]; [18],16.9 µM
LRKRSRRQT,IC50,HLA-B*07:02 [1]; [18],18.8 µM
NYPVAKGSY,Kd,HLA-A*24:03; source organism: Influenza A virus (A/Kayano/57(H2N2)),≥ 20 µM
QASTTEAILP,Kd,HLA-B*58:01; [14],1.52 µM
same,Kd,HLA-B*57:01; [14],1.96 µM
QTYMYTGQY,Kd,HLA-A*01:01 [9],0.512 µM
same,Kd,HLA-A*29:02,0.017 µM
RAAVEDEEF,Kd,HLA-B*58:01; source organism: Dengue virus 3 Singapore/8120/1995,0.865 µM
RPRVTKQYIV,Kd,HLA-B*07:02 [2],0.00455 µM
same,Kd,HLA-B*54:01,0.106 µM
same,Kd,HLA-B*51:01,14.9 µM
same,Kd,HLA-B*53:01; [13],4.45 µM
same,Kd,HLA-B*35:01,11.5 µM
RSVSGDLIL,Kd,HLA-B*58:01; [20],0.00984 µM
RVWIEENPW,Kd,HLA-A*32:01,0.058 µM
same,Kd,HLA-B*57:01; [20],0.0027 µM
SAHSADGHY,Kd,HLA-A*01:01 [9],≥ 20 µM
same,Kd,HLA-A*29:02,0.02 µM
TTLSLDYAW,Kd,HLA-A*32:01,0.114 µM
same,Kd,HLA-B*53:01; [20],0.0709 µM
same,Kd,HLA-B*58:01; [20],0.00166 µM
same,Kd,HLA-B*57:01; [20],0.000617 µM
VSSVNMVSRL,Kd,HLA-A*01:01 [10],10.7 µM
same,Kd,HLA-B*57:01; source organism: Dengue virus 3 Sri Lanka/1266/2000,1.03 µM
YLPEDSDIL,Kd,"HLA-A*69:01; source organism: Marburg virus - Musoke, Kenya, 1980",≥ 20 µM
same,Kd,HLA-A*02:01 [11],0.525 µM
same,Kd,HLA-A*02:12,0.006 µM
